Reference: PMC4487810
Numbering of substitutions follows the chain as printed. In names and notes the source's numbering stands.

B1: 2-hydroxyethylphosphonate dioxygenase (HEPD) (Streptomyces viridochromogenes DSM 40736) (protein)
chain: MRIDPFKLAHWMNARKYTAAQTADLAGLPLDDLRRLLGDEANEPDPAAATALAEALSVEPSQLAADAHRNLTVVHKSAEEMHASRRPIQRDGIHFYNYYTLAAPEGRVAPVVLDILCPSDRLPALNNGHLEPAITVNLGPGDINGRWGEEITPQTWRVLHANHGGDRWITGDSYVEPSYCPHSYSLAGDAPARIVSYTAQSNISPLMTEANNWSTGAFEEALKALSGKVSAGSVLDLFLARRAHTRTSAAEAAGVPPADLEAALRSPASETGLTVLRTLGRALGFDYRVLLPADDQHDGVGKTWTTIEDSRRSRRTFGTYEAASMASAAHLPDLVGSFLRVDADGRGADLIDHAENHYVVTEGRLTLEWDGPDGPASVELEPDGSAWTGPFVRHRWHGTGTVLKFGSGAHLGYQDWLELTNTFEPAATLRRGRRDLAGWGYDN
B2: 2-hydroxyethylphosphonate dioxygenase (HEPD) (Streptomyces viridochromogenes DSM 40736; E176H) (protein)
chain: B1 chain with E176H

Substrate: O=P(O)(O)CCO
Test: purified protein
Settings: O2 co-substrate
[1] = enzyme saturated with Fe(II) (more than 1 equivalent)

Protein | Km (Fe(II)) [µM] | kcat (Fe(II)) [s⁻¹] | Km (Fe(II), labelled compound) [µM] | kcat (Fe(II), labelled compound) [s⁻¹] | Km [1] [µM] | kcat [1] [s⁻¹]
B1 | 8 ± 1 | 0.3 ± 0.01 | 10 ± 2 | 0.31 ± 0.01 |  | 
B2 |  |  |  |  | 23 ± 3 | 0.38 ± 0.01
